These results are taken from patent publication US20150344570A1 (published 2015).

Bounds are passed on as bounds.

One assay addresses FcγRIIIa F (human, UniProt P08637 17-208). The experiment in a line: SPR (Biacore), KD. (In general: Surface plasmon resonance follows binding to a sensor surface in real time, without labels.)
The next assay concerns the target FcγRIIIa V (human, UniProt P08637 17-208). Briefly: SPR (Biacore), KD.

FcγRIIIa F, sequence (P08637 17-208): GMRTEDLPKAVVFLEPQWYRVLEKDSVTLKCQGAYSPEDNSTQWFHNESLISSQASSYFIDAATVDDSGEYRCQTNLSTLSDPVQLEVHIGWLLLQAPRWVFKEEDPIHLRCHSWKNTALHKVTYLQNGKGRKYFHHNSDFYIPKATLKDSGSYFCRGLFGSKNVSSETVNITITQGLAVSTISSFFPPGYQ
FcγRIIIa V, sequence (P08637 17-208): as above

B1: H240-Kn202/H240-Hl076/L73-k0 (antibody, human IgG1, kappa)
heavy 1: QDQLVQSGAEVKKPGASVKVSCKASGFNIKDTYIQWVRQAPGQGLEWMGRIDPLRKQTKYREKFEGRVTITADTSTNTAYMELSSLRSEDTAVYYCVRSGREFDYWGQGTLVTVSSASTKGPSVFPLAPSSKSTSGGTAALGCLVKDYFPEPVTVSWNSGALTSGVHTFPAVLQSSGLYSLSSVVTVPSSSLGTQTYICNVNHKPSNTKVDKKVEPKSCDKTHTCPPCPAPEEQWGPMVFLFPPKPKDTLMISRTPEVTCVVVDVSDEEPEVKFNWYVDGVEVHNAKTKPREEQYNATYRVVSVLTVLHQDWLNGKEYKCKVSNKALPAPIEKTISKAKGQPREPQVCTLPPSRDELTKNQVSLWCLVKGFYPSDIAVEWESNGQPENNYKTTPPVLDSDGSFFLYSKLTVDKSRWQQGNVFSCSVMHEALHNHYTQKSLSLSP
heavy 2: QDQLVQSGAEVKKPGASVKVSCKASGFNIKDTYIQWVRQAPGQGLEWMGRIDPLRKQTKYREKFEGRVTITADTSTNTAYMELSSLRSEDTAVYYCVRSGREFDYWGQGTLVTVSSASTKGPSVFPLAPSSKSTSGGTAALGCLVKDYFPEPVTVSWNSGALTSGVHTFPAVLQSSGLYSLSSVVTVPSSSLGTQTYICNVNHKPSNTKVDKKVEPKSCDKTHTCPPCPAPELLGGPSVFLFPPKPKDTLMISRTPEVTCVVVDVSHEEPEVKFNWYVDGVEVHNAKTKPREEQYNSTYRVVSVLTVLHQDWLNGKEYKCKVSNDALPMPIEETISKAKGQPREPQVYTLPPSRCELTKNQVSLSCAVKGFYPSDIAVEWESNGQPENNYKTTPPVLDSDGSFFLVSKLTVDKSRWQQGNVFSCSVMHEALHNHYTQKSLSLSP
light: DIQMTQSPSSLSASVGDRVTITCRASQDIHKYIAWYQQKPGQAPRLLIQYTSTLQPGVPSRFSGSGSGTDYTFTISSLQPEDIATYYCLQYEQLRTFGGGTKVEIKRTVAAPSVFIFPPSDEQLKSGTASVVCLLNNFYPREAKVQWKVDNALQSGNSQESVTEQDSKDSTYSLSSTLTLSKADYEKHKVYACEVTHQGLSSPVTKSFNRGEC
As to B1, the “fold binding activity against H240-Kn033/H240-Hl033/L73-k0” value in the assay with FcγRIIIa F and with FcγRIIIa V was not below 100 fold in each case.

B2: H240-Kn208/H240-Hl076/L73-k0 (antibody, human IgG1, kappa)
heavy 1: QDQLVQSGAEVKKPGASVKVSCKASGFNIKDTYIQWVRQAPGQGLEWMGRIDPLRKQTKYREKFEGRVTITADTSTNTAYMELSSLRSEDTAVYYCVRSGREFDYWGQGTLVTVSSASTKGPSVFPLAPSSKSTSGGTAALGCLVKDYFPEPVTVSWNSGALTSGVHTFPAVLQSSGLYSLSSVVTVPSSSLGTQTYICNVNHKPSNTKVDKKVEPKSCDKTHTCPPCPAPEDQWGPMVFLFPPKPKDTLMISRTPEVTCVVVDVSDEEPEVKFNWYVDGVEVHNAKTKPREEQYNATYRVVSVLTVLHQDWLNGKEYKCKVSNKALPAPIEKTISKAKGQPREPQVCTLPPSRDELTKNQVSLWCLVKGFYPSDIAVEWESNGQPENNYKTTPPVLDSDGSFFLYSKLTVDKSRWQQGNVFSCSVMHEALHNHYTQKSLSLSP
heavy 2: QDQLVQSGAEVKKPGASVKVSCKASGFNIKDTYIQWVRQAPGQGLEWMGRIDPLRKQTKYREKFEGRVTITADTSTNTAYMELSSLRSEDTAVYYCVRSGREFDYWGQGTLVTVSSASTKGPSVFPLAPSSKSTSGGTAALGCLVKDYFPEPVTVSWNSGALTSGVHTFPAVLQSSGLYSLSSVVTVPSSSLGTQTYICNVNHKPSNTKVDKKVEPKSCDKTHTCPPCPAPELLGGPSVFLFPPKPKDTLMISRTPEVTCVVVDVSHEEPEVKFNWYVDGVEVHNAKTKPREEQYNSTYRVVSVLTVLHQDWLNGKEYKCKVSNDALPMPIEETISKAKGQPREPQVYTLPPSRCELTKNQVSLSCAVKGFYPSDIAVEWESNGQPENNYKTTPPVLDSDGSFFLVSKLTVDKSRWQQGNVFSCSVMHEALHNHYTQKSLSLSP
light: DIQMTQSPSSLSASVGDRVTITCRASQDIHKYIAWYQQKPGQAPRLLIQYTSTLQPGVPSRFSGSGSGTDYTFTISSLQPEDIATYYCLQYEQLRTFGGGTKVEIKRTVAAPSVFIFPPSDEQLKSGTASVVCLLNNFYPREAKVQWKVDNALQSGNSQESVTEQDSKDSTYSLSSTLTLSKADYEKHKVYACEVTHQGLSSPVTKSFNRGEC
Take B2: the “fold binding activity against H240-Kn033/H240-Hl033/L73-k0” value in the assay with FcγRIIIa F and with FcγRIIIa V was not below 100 fold each time.
